B1: MT4-MMP (protein)
chain: QAPAPTKWNKRNLSWRVRTFPRDSPLGHDTVRALMYYALKVWSDIAPLNFHEVAGSAADIQIDFSKADHNDGYPFDGPGGTVAHAFFPGHHHTAGDTHFDDDEAWTFRSSDAHGMDLFAVAVHEFGHAIGLSHVAAAHSIMRPYYQGPVGDPLRYGLPYEDKVRVWQLYGVRESVSPTAQPEEPPLLPEPPDNRSSAPPRKDVPHRCSTHFDAVAQIRGEAFFFKGKYFWRLTRDRHLVSLQPAQMHRFWRGLPLHLDSVDAVYERTSDHKIVFFKGDRYWVFKDNNVEEGYPRPVSDFSLPPGGIDAAFSWAHNDRTYFFKDQLYWRYDDHTRHMDPGYPAQSPLWRGVPSTLDDAMRWSDGASYFFRGQEYWKVLDGELEVAPGYPQSTARDWLVCGDSQADGSVAAGVDAAEGPRAPPGQHDQSRSEDGYEVCSCTS
B2: MT6-MMP (protein)
chain: YALSGSVWKKRTLTWRVRSFPQSSQLSQETVRVLMSYALMAWGMESGLTFHEVDSPQGQEPDILIDFARAFHQDSYPFDGLGGTLAHAFFPGEHPISGDTHFDDEETWTFGSKDGEGTDLFAVAVHEFGHALGLGHSSAPNSIMRPFYQGPVGDPDKYRLSQDDRDGLQQLYGKAPQTPYDKPTRKPLAPPPQPPASPTHSPSFPIPDRCEGNFDAIANIRGETFFFKGPWFWRLQPSGQLVSPRPARLHRFWEGLPAQVRVVQAAYARHRDGRILLFSGPQFWVFQDRQLEGGARPLTELGLPPGEEVDAVFSWPQNGKTYLVRGRQYWRYDEAAARPDPGYPRDLSLWEGAPPSPDDVTVSNAGDTYFFKGAHYWRFPKNSIKTEPDAPQPMGPNWLDCPAPSSGPRAPRPPKATPVSETCDCQCELNQA

Molecular target: EphA2 having Myc-labeled C-terminal

Row | Protein | EphA2 processed fragment, western blotting
1 | B1 | a processed fragment of EphA2 (small arrow) was detected only in the MT1-MMP-introduced cells
2 | B2 | a processed fragment of EphA2 (small arrow) was detected only in the MT1-MMP-introduced cells

Reference: patent US20190064149
